The Kd is the constant that tells how readily two partners part at equilibrium. The low end stands for a tighter complex, the high end for a looser complex.

From US20240400640A1 (published 2024) come the findings set out here.

In this assay the target is IL-21-Fc. The experiment in a line: SPR. For orientation: SPR reads the build-up and loss of mass on a sensor chip optically.

B1: hIL-21 receptor (receptor)
chain: not shown
Turning to B1, the affinity, expressed as Kd, was 1.68 pM.
